{
  "source": "patent US20070178575A1",
  "about": "“Identification Of A Nitrilase From B. Japonicum By Rational Genome Mining And Methods Of Use” (priority 2005, published 2007)",
  "key": {"N#CCc1ccccc1": {"test_system": "T1, N#CCc1ccccc1", "T1 construct": "His tag (C); made in house; host or cells: E. coli Rosetta(DE3)pLysS (plasmid pLH10.3, pET22b)", "test": "Measurement of kinetic parameters (Bertholet ammonia assay, purified enzyme)", "assay_type": "biochemical, Bradyrhizobium japonicum USDA110", "conditions": "other: purified nitrilase, potassium phosphate buffer pH 7.2, 30° C.", "procedure": "(§1) The standard assays were carried out by mixing the substrate nitrile and purified nitrilase enzyme in potassium phosphate buffer (100 mM, pH 7.2). The reaction mixture was incubated at 30° C. Samples (100 μL) of the reaction mixture were withdrawn at several time intervals and quenched with 10 μl of 1 M HCl. The amount of ammonia produced in the reaction was measured using Bertholet assay as follows: A 100 μL aliquot of each of the following assay reagents was added subsequently: 0.02 M NaOCl, 0.33 M sodium phenoxide and 0.01% sodium nitroprusside solution. The mixture was then heated at 95° C. for 2 min, cooled rapidly in ice-water bath, and 200 μl of the mixture was then placed in a 96-well plate to measure the absorbance at 640 nm using SpectraMax M2 microplate reader (Molecular Devices). The amount of ammonia released during the hydrolysis was calculated by comparison with the standard curve obtained with standard ammonium chloride solution, and the activity was defined as the number of μmol of ammonia produced in 1 minute by 1 mg of enzyme (μmol·min^−1·mg^−1). […], activity assays were performed with different substrate concentrations, and Vmax and Km were calculated by best fitting the curve to experimental data according to Michaelis equation."}, "N#CC(O)c1ccccc1": {"test_system": "T2, N#CC(O)c1ccccc1", "T2 construct": "His tag (C); made in house; host or cells: E. coli Rosetta(DE3)pLysS (plasmid pLH10.3, pET22b)", "test": "Measurement of kinetic parameters (Bertholet ammonia assay, purified enzyme)", "assay_type": "biochemical, Bradyrhizobium japonicum USDA110", "conditions": "other: purified nitrilase, potassium phosphate buffer pH 7.2, 30° C.", "procedure": "as §1"}},
  "data": [
    {"substance": "nitrilase bll6402 (Bradyrhizobium diazoefficiens USDA 110)", "values": [
      {"measurement": "Km", "setting": "N#CCc1ccccc1", "result": 100, "unit": "µM"},
      {"measurement": "Vmax", "setting": "N#CCc1ccccc1", "result": 2.2, "unit": "U/mg"},
      {"measurement": "kcat", "setting": "N#CCc1ccccc1", "result": 1.36, "unit": "s⁻¹"},
      {"measurement": "kcat/Km", "setting": "N#CCc1ccccc1", "result": 13600, "unit": "s^−1M^−1"},
      {"measurement": "Km", "setting": "N#CC(O)c1ccccc1", "result": 260, "unit": "µM"},
      {"measurement": "Vmax", "setting": "N#CC(O)c1ccccc1", "result": 44.7, "unit": "U/mg"},
      {"measurement": "kcat", "setting": "N#CC(O)c1ccccc1", "result": 27.0, "unit": "s⁻¹"},
      {"measurement": "kcat/Km", "setting": "N#CC(O)c1ccccc1", "result": 104000, "unit": "M⁻¹ s⁻¹"}
    ]}
  ]
}
